{"source": "patent US9696316B2", "about": "“Conformationally dynamic peptides” (SYSTEM OF SYSTEMS ANALYTICS, INC., priority 2009, dated 2017)", "key": {"Aβ42 oligomer [1]": {"target": "T1, Aβ42 oligomer (Homo sapiens, UniProt P05067)", "T1 sequence (P05067 672-713 limits assumed)": "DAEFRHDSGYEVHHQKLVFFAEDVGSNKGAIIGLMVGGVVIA", "assay": "Aqueous Aβ oligomer assay, pyrene fluorescence", "format": "binding", "details": "for reactivity with Aβ42 oligomers (transition from pyrene excimer fluorescence to pyrene self-fluorescence): aqueous assay", "excerpt": "The conformation of peptide probe bound to the target protein can also be detected by measuring pyrene fluorescence, on the peptide alone and in combination with the target protein. […] The excimer fluorescence associated with the β-sheet conformation has a different wavelength than the monomer fluorescence associated with the alpha-helix conformation, and the excimer:monomer fluorescence ratio is 9:1. […] The addition of Aβ42 oligomer target protein results in a dose-dependent shift of the excimer:monomer fluorescence ratio to 20:1 at the highest Aβ42 oligomer concentration (0.3 μM). This change in excimer:monomer fluorescence ratio reflects a corresponding conformational change in the peptide, that results in increased β-sheet conformation, and decreased α helix conformation.\nAn Aβ oligomer assay may be conducted in an aqueous solvent, such as water. […] Upon introduction of Aβ oligomer, the fluorescence profile shifts to primarily self-fluorescence (monomeric) (see FIG. 11), which is associated with reduced β-sheet structure, or increased alpha helix structure.\nAs discussed above, Peptide 22 (SEQ ID NO: 2) undergoes a conformational change upon interaction with Aβ oligomer. FIG. 11 illustrates the fluorescence spectra for Peptide 22 labeled at each terminus with pyrene and incubated in aqueous conditions for several hours at room temperature in 10 mM Hepes (pH 7.0). […] (solid line=Time 0; dashed line=3 hours; dotted line=18 hours).\nPeptide 22 (100 nM) is incubated in water for 15 hours at room temperature with equimolar concentrations ([…]) of several potential Aβ substrates: Aβ42 oligomer (type 1); Aβ42 oligomer (type 2); Aβ1-42 monomer; Aβ1-40 monomer; Aβ1-42 fiber; Aβ1-40 fiber; bovine serum albumin (control substrate); and carbonic anhydrase (control substrate).\nWith reference to FIG. 13A, Peptide 22 (70 nM) is incubated with […] synthetic Aβ42 oligomer at 25 C, and fluorescence emission spectra is recorded after 3 hours incubation. […] (solid line—no Aβ42 oligomer; dashed/dot line—30 nN Aβ42 oligomer; large dashed line—100 nN Aβ42 oligomer; small dashed line—300 nN Aβ42 oligomer)"}, "[2]": {"assay": "Additional work on stability of the β-sheet conformation of variants", "format": "physicochemical", "details": "relative to parent sequence"}, "[3]": {"assay": "CD analysis of peptide probe conformation under different pH and salt conditions", "format": "physicochemical", "description": "As discussed in Example 2, histidine and glutamic acid residue substitutions were introduced into Peptides 22, 38 and 45 (SEQ ID NOs: 2-4) so as to permit the formation salt bridges between those residues. CD analysis can be performed on such peptides under different pH and salt conditions to determine the conformation of the peptide under given conditions.\nPeptide 38 (SEQ ID NO:3) labeled at each terminus with a pyrene moiety is used in this example. […] The addition of 500 mM NaCl greatly diminishes the alpha helix conformation in favor of a β-sheet conformation, at both pH levels. Thus, at pH 7, in the presence of 500 mM NaCl (large dashed line), the alpha helix content is 4%, while the fβ-sheet content is 40% (up from 10% without the salt). At pH 4, in the presence of 500 mM NaCl (dashed/dot line), the alpha helix content is 6%, while the β-sheet content is 52% (up from 4% without the salt). […] At greater salt concentrations, the salt bridge is destroyed, and the α helical conformation is no longer stabilized."}, "Aβ42 oligomer [4]": {"target": "T1, Aβ42 oligomer", "assay": "CD analysis of peptide probe with target protein", "format": "binding", "excerpt": "The conformation of the peptide probe bound to the target protein can be assessed by CD analysis. […] The peptide alone is highly alpha helical (36%). Upon mixing of Peptide 38 with the target protein, the peptide undergoes a conformation shift that results in increased β-sheet conformation, and decreased α helix conformation. That is, the secondary structure of Peptide 38 is altered such that the proportion of a helix is halved (18%), while the proportion of β-sheet structure is enhanced from 20% to 31%. […] Circular dichroism (CD) analysis is used to determine the secondary structure of Peptide 22, synthetic Aβ42 oligomer, and a mixture thereof. Samples are incubated in 10 mM sodium phosphate (pH 7.0) for 3 hours at room temperature before measuring CD. For each sample, the relative ellipticity is evaluated from 190-260 nm. […] Each data set represents the average of three separate spectral scans."}, "Aβ oligomer": {"target": "Aβ oligomer (Homo sapiens, UniProt P05067)", "sequence (P05067 672-713 limits assumed)": "as above", "assay": "Aβ oligomer assay with FRET-labeled probes", "format": "binding", "details": "FAM/EDANS labeled, water (FIG. 10 bottom panel B: increased β-sheet, FRET signal)", "excerpt": "Alternatively, as illustrated in bottom panel B of FIG. 10, a peptide probe can be labeled at each terminus with members of a FRET pair (e.g. FAM and EDANS)."}, "[5]": {"details": "mixed with Aβ42 oligomer (FIG. 8)"}}, "note": "Ends that are not written are not given here. * marks the point of attachment. EDANS = O=S(=O)(O)c1cccc2c(NCCN*)cccc12; FAM = 5(6)carboxyfluorescein"}
{"substance": "KAAA KLVFFAEDVGSNKHAIIELMK (KAAAKLVFFAEDVGSNKHAIIELMK) [Peptide 45, Salt bridge at G29H and G33E; Ala additions to increase alpha-helicity]", "values": [{"measurement": "reactivity with Aβ42 oligomers (transition from pyrene excimer fluorescence to pyrene self-fluorescence)", "setting": "Aβ42 oligomer [1]", "result": "react with Aβ42 oligomers"}]}
{"substance": "KLVFFAEDVGSNKHADIELMK (KLVFFAEDVGSNKHADIELMK) [AD330, P22, with point mutation I31D]", "values": [{"measurement": "effect of the substitutions on the β-sheet conformation of the probe", "setting": "[2]", "result": "destabilize the β-sheet conformation"}]}
{"substance": "KLVFFAEDAAAAKHAIIELMK (KLVFFAEDAAAAKHAIIELMK) [Peptide 38, Salt bridge at G29H and G33E; Ala substitutions to increase alpha-helicity]", "values": [{"measurement": "alpha helix content (CD)", "setting": "[3]; pH 4, 500 mM NaCl", "result": 6, "unit": "%"}, {"measurement": "β-sheet content (CD)", "setting": "[3]; pH 4, 500 mM NaCl", "result": 52, "unit": "%"}, {"measurement": "alpha helix content (CD)", "setting": "[3]; pH 4, no added salt", "result": 52, "unit": "%"}, {"measurement": "β-sheet content (CD)", "setting": "[3]; pH 4, without the salt", "result": 4, "unit": "%"}, {"measurement": "alpha helix content (CD)", "setting": "[3]; pH 7, 500 mM NaCl", "result": 4, "unit": "%"}, {"measurement": "β-sheet content (CD)", "setting": "[3]; pH 7, 500 mM NaCl", "result": 40, "unit": "%"}, {"measurement": "alpha helix content (CD)", "setting": "[3]; pH 7, no added salt", "result": 38, "unit": "%"}, {"measurement": "β-sheet content (CD)", "setting": "[3]; pH 7, without the salt", "result": 10, "unit": "%"}, {"measurement": "proportion of alpha helix (CD)", "setting": "Aβ42 oligomer [4]; [5]", "result": 18, "unit": "%"}, {"measurement": "proportion of β-sheet structure (CD)", "setting": "Aβ42 oligomer [4]; [5]", "result": 31, "unit": "%"}, {"measurement": "proportion of alpha helix (CD)", "setting": "Aβ42 oligomer [4]; peptide alone (FIG. 8)", "result": 36, "unit": "%"}, {"measurement": "proportion of β-sheet structure (CD)", "setting": "Aβ42 oligomer [4]; peptide alone (FIG. 8)", "result": 20, "unit": "%"}, {"measurement": "reactivity with Aβ42 oligomers (transition from pyrene excimer fluorescence to pyrene self-fluorescence)", "setting": "Aβ42 oligomer [1]", "result": "react with Aβ42 oligomers"}, {"measurement": "preferential binding by state of self-aggregation of Aβ protein", "setting": "Aβ42 oligomer [1]; versus monomers, fibers and control proteins", "result": "preferentially binds to Aβ protein in the form of soluble Aβ oligomers"}]}
{"substance": "KLVFFAEDVGSNKRAIIELMK (KLVFFAEDVGSNKRAIIELMK) [Peptide 22 variation 1, Salt bridge at G29R and G33E]", "values": [{"measurement": "reactivity with Aβ42 oligomers (transition from pyrene excimer fluorescence to pyrene self-fluorescence)", "setting": "Aβ42 oligomer [1]", "result": "react with Aβ42 oligomers"}]}
{"substance": "KLVFFAEDVGSNKGAISGLMK (KLVFFAEDVGSNKGAISGLMK) [Peptide 132S, Wildtype, with I32S point mutation]", "values": [{"measurement": "effect of the substitutions on the β-sheet conformation of the probe", "setting": "[2]", "result": "destabilize the β-sheet conformation"}]}
{"substance": "KLVSFAEDVGSNKHAIIEPMK (KLVSFAEDVGSNKHAIIEPMK) [GM6, P22, with point mutations F19S, L34P]", "values": [{"measurement": "effect of the substitutions on the β-sheet conformation of the probe", "setting": "[2]", "result": "destabilize the β-sheet conformation"}]}
{"substance": "KLVFFAEDVGDNKHAIIELMK (KLVFFAEDVGDNKHAIIELMK) [AD325, P22, with point mutation 526D]", "values": [{"measurement": "effect of the substitutions on the β-sheet conformation of the probe", "setting": "[2]", "result": "destabilize the β-sheet conformation"}]}
{"substance": "KLVFFAEDVGSNKHAIIEDMK (KLVFFAEDVGSNKHAIIEDMK) [AD329, P22, with point mutation L34D]", "values": [{"measurement": "effect of the substitutions on the β-sheet conformation of the probe", "setting": "[2]", "result": "destabilize the β-sheet conformation"}]}
{"substance": "KLVSFAEDVGSNKHAIIELMK (KLVSFAEDVGSNKHAIIELMK) [GM6 variation 1, P22, with point mutation F19S]", "values": [{"measurement": "effect of the substitutions on the β-sheet conformation of the probe", "setting": "[2]", "result": "destabilize the β-sheet conformation"}]}
{"substance": "(FAM)KLVFF AEDVG SNKBA IIELM E(EDANS) [AD293]", "values": [{"measurement": "FRET fluorescence behavior upon introduction of Aβ oligomer", "setting": "Aβ oligomer", "result": "fluorescence behavior consistent with this type of conformation change"}]}
{"substance": "KLVFFAEDVGSNKDADIELMK (KLVFFAEDVGSNKDADIELMK) [AD323, P22, with point mutations H29D and I31D]", "values": [{"measurement": "effect of the substitutions on the β-sheet conformation of the probe", "setting": "[2]", "result": "destabilize the β-sheet conformation"}]}
{"substance": "(FAM)HHQ KLVFFAEDEGSRKHAIEGLMEGE(EDANS) ({FAM}-HHQKLVFFAEDEGSRKHAIEGLMEGE(EDANS); not fully specified (C-terminus)) [AD 291, P77, with FAM and EDANS and solubilizing E residue]", "values": [{"measurement": "FRET fluorescence behavior upon introduction of Aβ oligomer", "setting": "Aβ oligomer", "result": "fluorescence behavior consistent with this type of conformation change"}]}
{"substance": "KLVFFAEDVGDNKHADIELMK (KLVFFAEDVGDNKHADIELMK) [AD327, P22, with point mutation S26D, I31D]", "values": [{"measurement": "effect of the substitutions on the β-sheet conformation of the probe", "setting": "[2]", "result": "destabilize the β-sheet conformation"}]}
{"substance": "KLVFFAEDVGSNKDAIIELMK (KLVFFAEDVGSNKDAIIELMK) [AD328, P22, with point mutation H29D]", "values": [{"measurement": "effect of the substitutions on the β-sheet conformation of the probe", "setting": "[2]", "result": "destabilize the β-sheet conformation"}]}
{"substance": "(FAM)EFR HDSGYEVHHQKLVFFAEDVGSNKGAIIGLME(EDANS) (EFRHDSGYEVHHQKLVFFAEDVGSNKGAIIGLME; not fully specified; FAM and EDANS labels) [AD292, Aβ residues 3-35, with FAM and EDANS and solubilizing E residue]", "values": [{"measurement": "FRET fluorescence behavior upon introduction of Aβ oligomer", "setting": "Aβ oligomer", "result": "fluorescence behavior consistent with this type of conformation change"}]}
{"substance": "KLVFFAEDVGSNKKAIIELMK (KLVFFAEDVGSNKKAIIELMK) [Peptide 22 variation 2, Salt bridge at G29K and G33E]", "values": [{"measurement": "reactivity with Aβ42 oligomers (transition from pyrene excimer fluorescence to pyrene self-fluorescence)", "setting": "Aβ42 oligomer [1]", "result": "react with Aβ42 oligomers"}]}
{"substance": "(FAM)EAA KLVFFAEDEGSRKHAIEGLMEGE(EDANS) ({FAM}-EAAKLVFFAEDEGSRKHAIEGLMEGE(EDANS); not fully specified (C-terminus)) [AD 290, P59, with FAM and EDANS, additional Ala, and solubilizing E residue]", "values": [{"measurement": "FRET fluorescence behavior upon introduction of Aβ oligomer", "setting": "Aβ oligomer", "result": "fluorescence behavior consistent with this type of conformation change"}]}
